# Data as given in IntAct's records for PubMed 35512704.
# B1: Mothers against decapentaplegic homolog 4 (Homo sapiens), Q13485 (parent)
# chain: MDNMSITNTPTSNDACLSIVHSLMCHRQGGESETFAKRAIESLVKKLKEKKDELDSLITAITTNGAHPSKCVTIQRTLDGRLQVAGRKGFPHVIYARLWRWPDLHKNELKHVKYCQYAFDLKCDSVCVNPYHYERVVSPGIDLSGLTLQSNAPSSMMVKDEYVHDFEGQPSLSTEGHSIQTIQHPPSNRASTETYSTPALLAPSESNATSTANFPNIPVASTSQPASILGGSHSEGLLQIASGPQPGQQQNGFTGQPATYHHNSTTTWTGSRTAPYTPNLPHHQNGHLQHHPPMPPHPGHYWPVHNELAFQPPISNHPAPEYWCSIAYFEMDVQVGETFKVPSSCPIVTVDGYVDPSGGDRFCLGQLSNVHRTEAIERARLHIGKGVQLECKGEGDVWVRCLSDHAVFVQSYYLDREAGRAPGDAVHKIYPSAYIKVFDLRQCHRQMQQQAATAQAAAAAQAAAVAGNIPGPGSVGGIAPAISLSAAAGIGVDDLRRLCILRMSFVKGWGPDYPRQSIKETPCWIEIHLHRALQLLDEVLHTMPIADPQPLD
# Variants of: B1
# Conditions: with p85b_human PIK3R2, O00459
row,Variant,effect of a mutation on the interaction
1,G386D,with no effect

# Variants of: B1
# Conditions: with dpod1_human POLD1, P28340
row,Variant,effect of a mutation on the interaction
1,G386D,with no effect

# Variants of: B1
# Conditions: with dpoe1_human POLE
row,Variant,effect of a mutation on the interaction
1,G386D,with no effect

# Variants of: B1
# Conditions: with 2aaa_human PPP2R1A
row,Variant,effect of a mutation on the interaction
1,G386D,with no effect

# Variants of: B1
# Conditions: with prdm1_human PRDM1, O75626
# Sequence of prdm1_human PRDM1, O75626 (O75626 whole entry): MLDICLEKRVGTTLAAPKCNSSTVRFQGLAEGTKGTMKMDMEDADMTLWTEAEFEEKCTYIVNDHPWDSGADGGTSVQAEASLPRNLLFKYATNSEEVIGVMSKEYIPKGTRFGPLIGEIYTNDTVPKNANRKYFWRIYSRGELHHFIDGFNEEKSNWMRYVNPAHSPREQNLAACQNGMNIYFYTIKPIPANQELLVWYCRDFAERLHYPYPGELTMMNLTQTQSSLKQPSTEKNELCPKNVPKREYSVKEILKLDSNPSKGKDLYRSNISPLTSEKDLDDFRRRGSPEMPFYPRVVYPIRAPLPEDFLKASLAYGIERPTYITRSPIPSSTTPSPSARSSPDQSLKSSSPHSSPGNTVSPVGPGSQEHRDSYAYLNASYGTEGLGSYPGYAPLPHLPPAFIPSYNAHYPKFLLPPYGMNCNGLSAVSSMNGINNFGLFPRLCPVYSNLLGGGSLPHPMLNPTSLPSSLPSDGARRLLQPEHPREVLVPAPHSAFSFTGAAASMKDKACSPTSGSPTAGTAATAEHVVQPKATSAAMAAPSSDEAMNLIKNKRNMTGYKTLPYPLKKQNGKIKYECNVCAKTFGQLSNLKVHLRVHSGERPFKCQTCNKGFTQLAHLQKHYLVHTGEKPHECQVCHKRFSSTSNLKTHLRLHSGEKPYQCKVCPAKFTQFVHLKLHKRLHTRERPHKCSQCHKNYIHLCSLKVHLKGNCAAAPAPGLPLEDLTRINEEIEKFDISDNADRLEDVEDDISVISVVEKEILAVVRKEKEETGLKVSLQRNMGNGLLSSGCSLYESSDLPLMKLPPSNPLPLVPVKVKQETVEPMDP
row,Variant,effect of a mutation on the interaction
1,G386D,with no effect

# Variants of: B1
# Conditions: with aapk2_human PRKAA2, P54646
# Sequence of aapk2_human PRKAA2, P54646 (P54646 whole entry, looked up): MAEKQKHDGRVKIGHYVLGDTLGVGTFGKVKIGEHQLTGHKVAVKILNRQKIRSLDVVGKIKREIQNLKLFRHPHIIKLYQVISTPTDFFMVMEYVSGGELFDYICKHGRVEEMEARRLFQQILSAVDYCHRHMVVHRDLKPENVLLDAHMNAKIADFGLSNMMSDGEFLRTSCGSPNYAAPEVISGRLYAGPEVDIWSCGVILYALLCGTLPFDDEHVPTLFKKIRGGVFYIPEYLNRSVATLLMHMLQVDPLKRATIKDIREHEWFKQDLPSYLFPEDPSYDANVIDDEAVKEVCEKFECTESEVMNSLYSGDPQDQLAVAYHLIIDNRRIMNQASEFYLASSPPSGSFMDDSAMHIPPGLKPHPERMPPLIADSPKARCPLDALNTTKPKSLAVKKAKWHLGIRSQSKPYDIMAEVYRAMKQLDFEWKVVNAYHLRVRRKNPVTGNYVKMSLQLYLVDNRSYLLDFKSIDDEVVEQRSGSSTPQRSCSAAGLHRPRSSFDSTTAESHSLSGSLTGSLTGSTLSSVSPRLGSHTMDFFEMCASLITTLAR
row,Variant,effect of a mutation on the interaction
1,G386D,with no effect

# Variants of: B1
# Conditions: with aakb2_human PRKAB2, O43741
row,Variant,effect of a mutation on the interaction
1,G386D,with no effect

# Variants of: B1
# Conditions: with prss8_human PRSS8, Q16651
row,Variant,effect of a mutation on the interaction
1,G386D,with no effect

# Variants of: B1
# Conditions: with ptk6_human PTK6, Q13882
row,Variant,effect of a mutation on the interaction
1,G386D,with no effect

# Variants of: B1
# Conditions: with tf65_human RELA
row,Variant,effect of a mutation on the interaction
1,G386D,with no effect

# Variants of: B1
# Conditions: with rheb_human RHEB
row,Variant,effect of a mutation on the interaction
1,G386D,with no effect

# Variants of: B1
# Conditions: with rictr_human RICTOR
row,Variant,effect of a mutation on the interaction
1,G386D,with no effect

# Variants of: B1
# Conditions: with rnf43_human RNF43, Q68DV7
row,Variant,effect of a mutation on the interaction
1,G386D,with no effect

# Variants of: B1
# Conditions: with ros1_human ROS1, P08922
row,Variant,effect of a mutation on the interaction
1,G386D,with no effect

# Variants of: B1
# Conditions: with rl5_human RPL5, P46777
row,Variant,effect of a mutation on the interaction
1,G386D,with no effect

# Variants of: B1
# Conditions: with ks6b1_human RPS6KB1, P23443
# Sequence of ks6b1_human RPS6KB1, P23443 (P23443 whole entry, looked up): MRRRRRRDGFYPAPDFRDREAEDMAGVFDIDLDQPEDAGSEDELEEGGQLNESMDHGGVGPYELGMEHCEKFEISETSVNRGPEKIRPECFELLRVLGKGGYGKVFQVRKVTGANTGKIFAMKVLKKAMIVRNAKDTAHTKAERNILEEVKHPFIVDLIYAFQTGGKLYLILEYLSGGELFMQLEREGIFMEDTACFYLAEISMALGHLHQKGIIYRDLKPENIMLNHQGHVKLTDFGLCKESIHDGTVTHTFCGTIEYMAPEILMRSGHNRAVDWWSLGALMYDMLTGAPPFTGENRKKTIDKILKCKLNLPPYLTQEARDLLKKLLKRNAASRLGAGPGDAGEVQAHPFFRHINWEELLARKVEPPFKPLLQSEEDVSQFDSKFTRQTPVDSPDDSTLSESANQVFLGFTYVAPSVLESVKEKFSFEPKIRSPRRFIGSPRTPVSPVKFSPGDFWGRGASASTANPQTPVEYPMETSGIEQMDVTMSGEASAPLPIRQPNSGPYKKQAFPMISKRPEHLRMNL
row,Variant,effect of a mutation on the interaction
1,G386D,with no effect

# Variants of: B1
# Conditions: with rptor_human RPTOR
row,Variant,effect of a mutation on the interaction
1,G386D,with no effect

# Variants of: B1
# Conditions: with runx1_human RUNX1, Q01196
row,Variant,effect of a mutation on the interaction
1,G386D,with no effect

# Variants of: B1
# Conditions: with ruvb1_human RUVBL1, Q9Y265
# Sequence of ruvb1_human RUVBL1, Q9Y265 (Q9Y265 whole entry): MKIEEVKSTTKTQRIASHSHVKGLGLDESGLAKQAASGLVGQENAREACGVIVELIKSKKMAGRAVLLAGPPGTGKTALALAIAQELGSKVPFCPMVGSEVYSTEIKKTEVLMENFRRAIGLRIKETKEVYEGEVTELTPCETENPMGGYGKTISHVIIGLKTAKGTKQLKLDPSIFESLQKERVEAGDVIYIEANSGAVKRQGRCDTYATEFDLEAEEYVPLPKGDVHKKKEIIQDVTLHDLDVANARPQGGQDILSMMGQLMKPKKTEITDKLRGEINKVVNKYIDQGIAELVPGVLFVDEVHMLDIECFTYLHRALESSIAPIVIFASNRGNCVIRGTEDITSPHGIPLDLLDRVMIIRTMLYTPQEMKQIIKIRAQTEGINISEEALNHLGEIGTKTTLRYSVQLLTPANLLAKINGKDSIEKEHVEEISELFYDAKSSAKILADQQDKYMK
row,Variant,effect of a mutation on the interaction
1,G386D,with no effect

# Variants of: B1
# Conditions: with sdha_human SDHA
row,Variant,effect of a mutation on the interaction
1,G386D,with no effect

# Variants of: B1
# Conditions: with setb1_human SETDB1, Q15047
row,Variant,effect of a mutation on the interaction
1,G386D,with no effect

# Variants of: B1
# Conditions: with skp2_human SKP2, Q13309
row,Variant,effect of a mutation on the interaction
1,G386D,with no effect

# Variants of: B1
# Conditions: with smad1_human SMAD1, Q15797
# Sequence of smad1_human SMAD1, Q15797 (Q15797 whole entry): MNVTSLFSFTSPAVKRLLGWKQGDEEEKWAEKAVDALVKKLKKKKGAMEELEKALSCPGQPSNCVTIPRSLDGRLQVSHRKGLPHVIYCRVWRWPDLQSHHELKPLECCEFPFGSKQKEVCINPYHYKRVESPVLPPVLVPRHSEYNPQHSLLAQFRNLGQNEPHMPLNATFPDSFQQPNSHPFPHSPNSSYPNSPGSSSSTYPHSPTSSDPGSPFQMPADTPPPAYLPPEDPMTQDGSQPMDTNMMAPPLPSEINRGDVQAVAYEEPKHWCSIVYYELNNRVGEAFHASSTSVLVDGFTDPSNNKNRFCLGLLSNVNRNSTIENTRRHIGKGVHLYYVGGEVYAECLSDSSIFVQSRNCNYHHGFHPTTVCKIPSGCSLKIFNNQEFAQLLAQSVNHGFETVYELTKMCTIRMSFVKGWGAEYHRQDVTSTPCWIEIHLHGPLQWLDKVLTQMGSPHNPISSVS
row,Variant,effect of a mutation on the interaction
1,G386D,with no effect

# Variants of: B1
# Conditions: with smad2_human SMAD2, Q15796
row,Variant,effect of a mutation on the interaction
1,G386D,with no effect

# Variants of: B1
# Conditions: with smad3_human SMAD3, P84022
row,Variant,effect of a mutation on the interaction
1,G386D,with no effect

# Variants of: B1
# Conditions: with smca4_human SMARCA4, P51532
row,Variant,effect of a mutation on the interaction
1,G386D,with no effect

# Variants of: B1
# Conditions: with snf5_human SMARCB1, Q12824
row,Variant,effect of a mutation on the interaction
1,G386D,with no effect

# Variants of: B1
# Conditions: with smo_human SMO
row,Variant,effect of a mutation on the interaction
1,G386D,with no effect

# Variants of: B1
# Conditions: with socs1_human SOCS1, O15524
# Sequence of socs1_human SOCS1, O15524 (O15524 whole entry): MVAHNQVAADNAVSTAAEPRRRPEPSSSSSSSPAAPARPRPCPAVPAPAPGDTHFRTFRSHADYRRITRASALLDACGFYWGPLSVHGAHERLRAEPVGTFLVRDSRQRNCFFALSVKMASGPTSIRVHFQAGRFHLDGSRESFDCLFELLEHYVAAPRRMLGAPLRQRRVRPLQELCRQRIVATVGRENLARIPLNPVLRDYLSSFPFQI
row,Variant,effect of a mutation on the interaction
1,G386D,with no effect

# Variants of: B1
# Conditions: with sox10_human SOX10, P56693
# Sequence of sox10_human SOX10, P56693 (P56693 whole entry): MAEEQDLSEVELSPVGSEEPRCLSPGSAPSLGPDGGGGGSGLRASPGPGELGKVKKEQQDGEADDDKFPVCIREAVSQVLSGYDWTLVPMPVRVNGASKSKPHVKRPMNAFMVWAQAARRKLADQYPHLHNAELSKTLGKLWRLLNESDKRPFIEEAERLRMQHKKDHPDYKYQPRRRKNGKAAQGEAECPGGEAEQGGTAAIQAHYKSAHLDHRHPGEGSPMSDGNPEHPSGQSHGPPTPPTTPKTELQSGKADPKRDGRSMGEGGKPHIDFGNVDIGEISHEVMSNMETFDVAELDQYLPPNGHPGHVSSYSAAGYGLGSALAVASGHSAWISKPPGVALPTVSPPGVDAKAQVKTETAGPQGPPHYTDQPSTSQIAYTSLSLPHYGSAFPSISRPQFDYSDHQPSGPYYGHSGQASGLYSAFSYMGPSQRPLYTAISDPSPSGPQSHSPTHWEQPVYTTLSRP
row,Variant,effect of a mutation on the interaction
1,G386D,with no effect

# Variants of: B1
# Conditions: with sox2_human SOX2, P48431
row,Variant,effect of a mutation on the interaction
1,G386D,with no effect

# Variants of: B1
# Conditions: with sox3_human SOX3, P41225
row,Variant,effect of a mutation on the interaction
1,G386D,with no effect

# Variants of: B1
# Conditions: with sox4_human SOX4, Q06945
row,Variant,effect of a mutation on the interaction
1,G386D,with no effect

# Variants of: B1
# Conditions: with sox9_human SOX9, P48436
row,Variant,effect of a mutation on the interaction
1,G386D,with no effect

# Variants of: B1
# Conditions: with spop_human SPOP
row,Variant,effect of a mutation on the interaction
1,G386D,with no effect

# Variants of: B1
# Conditions: with src_human SRC
row,Variant,effect of a mutation on the interaction
1,G386D,with no effect

# Variants of: B1
# Conditions: with stat3_human STAT3, P40763
# Sequence of stat3_human STAT3, P40763 (P40763 whole entry): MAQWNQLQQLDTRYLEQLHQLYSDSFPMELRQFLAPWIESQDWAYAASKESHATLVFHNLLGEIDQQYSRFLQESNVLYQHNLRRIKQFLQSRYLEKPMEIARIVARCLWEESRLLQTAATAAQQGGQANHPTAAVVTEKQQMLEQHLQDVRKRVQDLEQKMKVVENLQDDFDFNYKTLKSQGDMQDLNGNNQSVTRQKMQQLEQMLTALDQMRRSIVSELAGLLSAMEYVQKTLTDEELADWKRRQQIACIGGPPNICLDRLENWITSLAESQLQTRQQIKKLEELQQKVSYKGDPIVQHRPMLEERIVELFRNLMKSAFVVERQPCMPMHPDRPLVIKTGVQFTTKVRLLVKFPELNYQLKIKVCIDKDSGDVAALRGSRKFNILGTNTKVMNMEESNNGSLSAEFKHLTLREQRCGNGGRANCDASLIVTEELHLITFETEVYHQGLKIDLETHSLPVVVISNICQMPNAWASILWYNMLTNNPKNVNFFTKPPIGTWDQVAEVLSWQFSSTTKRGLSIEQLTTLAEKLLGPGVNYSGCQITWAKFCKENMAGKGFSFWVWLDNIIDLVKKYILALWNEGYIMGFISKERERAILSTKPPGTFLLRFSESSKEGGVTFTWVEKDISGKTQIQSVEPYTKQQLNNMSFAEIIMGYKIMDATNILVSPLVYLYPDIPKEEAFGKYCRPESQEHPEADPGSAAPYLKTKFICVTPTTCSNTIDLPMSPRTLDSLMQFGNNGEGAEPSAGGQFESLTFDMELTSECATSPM
row,Variant,effect of a mutation on the interaction
1,G386D,with no effect

# Variants of: B1
# Conditions: with stk38_human STK38, Q15208
# Sequence of stk38_human STK38, Q15208 (Q15208 whole entry, looked up): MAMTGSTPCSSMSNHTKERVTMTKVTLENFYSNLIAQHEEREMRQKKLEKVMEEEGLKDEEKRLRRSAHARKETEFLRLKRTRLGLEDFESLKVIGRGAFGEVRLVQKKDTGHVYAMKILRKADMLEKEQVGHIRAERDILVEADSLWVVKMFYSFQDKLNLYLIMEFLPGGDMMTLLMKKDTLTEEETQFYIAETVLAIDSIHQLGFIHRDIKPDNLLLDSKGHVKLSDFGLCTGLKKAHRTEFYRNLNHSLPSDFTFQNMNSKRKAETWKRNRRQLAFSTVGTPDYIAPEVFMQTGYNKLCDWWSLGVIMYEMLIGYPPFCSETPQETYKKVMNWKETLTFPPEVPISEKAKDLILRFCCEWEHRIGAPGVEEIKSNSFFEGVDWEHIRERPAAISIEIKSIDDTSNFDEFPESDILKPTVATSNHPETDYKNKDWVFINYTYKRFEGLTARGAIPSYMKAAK
row,Variant,effect of a mutation on the interaction
1,G386D,with no effect

# Variants of: B1
# Conditions: with ksyk_human SYK
row,Variant,effect of a mutation on the interaction
1,G386D,with no effect

# Variants of: B1
# Conditions: with eloc_human ELOC
row,Variant,effect of a mutation on the interaction
1,G386D,with no effect
